No end group written: not given here.
Columns and labels:
[1] = target: 7E11-C5 monoclonal antibody; test: competitive ELISA, LNCaP extract on plate
[2] = target: 7E11-C5 monoclonal antibody; test: competitive ELISA, peptide 1.75-1130 nM pre-incubated with 7E11-C5 at 30 ng/ml (0.2 nM), LNCaP extract on plate

LYANPGMYSRLHSPA-NH2 [peptide SEQ ID NO 31 (amide form)] was tested, and the molar ratio of peptide to monovalent binding site on the antibody at the IC50 [1] was 400 and the IC50 [2] was 160 nM.

From patent US5747334
